Article doi:10.1101/2020.06.26.173310
Where two headings read alike, the source gives them in different places.

Key:
[1] = molecular target: bacteriophytochrome from Deinococcus radiodurans (DrBphP) (Deinococcus radiodurans strain R1) (UniProt Q9RZA4); test: ITC
[2] = molecular target: bacteriophytochrome from Deinococcus radiodurans (DrBphP) (Deinococcus radiodurans strain R1) (UniProt Q9RZA4); test: ITC; remark: listed apart in the source
[3] = molecular target: response regulator from Agrobacterium fabrum (AtRR) (Agrobacterium fabrum strain C58) (UniProt Q7CY46); test: SPR
[4] = molecular target: response regulator from Deinococcus radiodurans (DrRR) (Deinococcus radiodurans strain R1) (UniProt Q9RZA5); test: SPR
[5] = molecular target: response regulator from Deinococcus radiodurans (DrRR) (Deinococcus radiodurans strain R1) (UniProt Q9RZA5); test: SPR; remark: listed apart in the source
[6] = molecular target: response regulator from Deinococcus radiodurans (DrRR) (Deinococcus radiodurans strain R1) (UniProt Q9RZA5); test: SPR; remark: listed apart in the source

bacteriophytochrome from Deinococcus radiodurans (DrBphP) (Deinococcus radiodurans strain R1), sequence (Q9RZA4 whole entry): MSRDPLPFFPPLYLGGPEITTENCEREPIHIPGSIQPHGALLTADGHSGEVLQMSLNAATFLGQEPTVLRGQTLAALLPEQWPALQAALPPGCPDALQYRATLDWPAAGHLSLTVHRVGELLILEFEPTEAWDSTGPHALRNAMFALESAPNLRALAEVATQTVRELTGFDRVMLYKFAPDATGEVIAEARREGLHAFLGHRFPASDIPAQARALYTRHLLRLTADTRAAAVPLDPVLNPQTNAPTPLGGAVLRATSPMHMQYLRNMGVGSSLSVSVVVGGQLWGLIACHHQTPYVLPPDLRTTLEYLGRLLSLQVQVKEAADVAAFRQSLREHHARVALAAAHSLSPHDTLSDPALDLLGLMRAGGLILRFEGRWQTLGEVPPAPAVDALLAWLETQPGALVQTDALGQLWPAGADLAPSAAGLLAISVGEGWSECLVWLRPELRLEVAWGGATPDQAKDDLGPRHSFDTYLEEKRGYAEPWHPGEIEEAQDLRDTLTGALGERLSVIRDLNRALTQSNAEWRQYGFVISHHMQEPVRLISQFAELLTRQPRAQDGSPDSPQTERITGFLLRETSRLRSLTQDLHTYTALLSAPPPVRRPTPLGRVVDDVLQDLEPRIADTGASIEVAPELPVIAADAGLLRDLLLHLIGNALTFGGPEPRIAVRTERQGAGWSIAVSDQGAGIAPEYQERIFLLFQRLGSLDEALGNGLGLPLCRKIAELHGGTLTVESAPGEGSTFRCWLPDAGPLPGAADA

## response regulator from Deinococcus radiodurans (DrRR) (from UniProt Q9RZA5 1-149) (natural protein)
[1]
  Kd: 35 µM
[2]
  Kd: 10.5 µM
  stoichiometry N: 1

## phytochrome 1 from Agrobacterium fabrum strain C58 (AgP1) (from UniProt Q7CY45 1-736) (natural protein)
[3]
  Kd: > 200 µM

## bacteriophytochrome from Deinococcus radiodurans (DrBphP) (from UniProt Q9RZA4 1-755) (natural protein)
[4]
  Kd: 60 µM
[5]
  Kd: 43 µM
  stoichiometry N: 1
[6]
  Kd: 10 µM
